Target: clathrin heavy chain (Sus scrofa)
Assay: cryo-EM structure

stoichiometry N: 3
Substance: clathrin heavy chain (natural protein)

Source: article PMC7100586
